Assays:
mouse IL-18 = biological target: T1, mouse IL-18 (mouse, UniProt P70380 36-192); assay: SPR
T1 chain: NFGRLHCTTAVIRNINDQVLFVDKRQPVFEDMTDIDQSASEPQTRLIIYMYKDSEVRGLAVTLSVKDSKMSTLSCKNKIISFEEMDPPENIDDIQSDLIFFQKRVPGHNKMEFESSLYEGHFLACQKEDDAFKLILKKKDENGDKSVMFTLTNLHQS

human IL-18 = human IL-18 (human, UniProt Q14116 37-193); assay: SPR
Chain of human IL-18 (Q14116 37-193): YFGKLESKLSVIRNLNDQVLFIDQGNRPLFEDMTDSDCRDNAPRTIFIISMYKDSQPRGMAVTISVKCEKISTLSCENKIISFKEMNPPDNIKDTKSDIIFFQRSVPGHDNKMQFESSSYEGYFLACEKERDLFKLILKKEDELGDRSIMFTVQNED

B1: untagged YCI (YMTV IL-18 bp, YMTV Cytokine Inhibitor, without tag) (other)
chain: EKECDKHRSVNIQVPMKETSEVLLRCTGSSYFKHFSYVYWLVGESETVDQLQQNSGYGETSHPSKPHECGNLPSADLVLTNMTEKMRDTKLTCVLMDPDGHIDESLVLREVWDCFNKT
Binder B1 has a Kd (mouse IL-18) of 7.6 nM and a Kd (human IL-18) of 8.13 nM.

— patent publication US20090011979A1 (published 2009)
